The record followed here is US20240115720A1 (published 2024).

What all share (experiment): BLI (Octet HTX)
The target of assay [1] is T1, Recombinant Human DLL3 Protein (amino acids Ala27-Ala479, cat #9749-DL, R&D Systems) (UniProt Q9NYJ7 27-479).
T1 chain: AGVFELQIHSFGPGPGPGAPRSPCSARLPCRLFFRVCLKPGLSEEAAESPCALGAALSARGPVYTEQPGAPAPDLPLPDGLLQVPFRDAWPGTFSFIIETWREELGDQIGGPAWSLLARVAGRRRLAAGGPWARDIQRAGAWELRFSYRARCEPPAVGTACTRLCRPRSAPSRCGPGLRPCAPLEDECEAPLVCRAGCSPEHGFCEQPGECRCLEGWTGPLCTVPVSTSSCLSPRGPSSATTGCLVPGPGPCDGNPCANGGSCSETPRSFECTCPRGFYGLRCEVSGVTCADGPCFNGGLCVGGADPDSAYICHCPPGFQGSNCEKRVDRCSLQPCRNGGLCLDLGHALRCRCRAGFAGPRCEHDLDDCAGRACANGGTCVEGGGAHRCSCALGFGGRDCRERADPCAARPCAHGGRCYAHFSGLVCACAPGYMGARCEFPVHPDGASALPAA

Assay [2] deals with T1, Recombinant Human DLL3 Protein (amino …).
Assay [3] has the same target.

Where two headings read alike, the source gives them in different places.

B1: 6-G23-F (antibody, V domains shown)
VH: QVQLVQSGAEVKKPGASVKVSCKASGYTFTSYYIHWVRQAPGQGLEWMGIIDPSDGSTNYAQKFQGRVTMTRDTSTSTVYMELSSLRSEDTAVYYCARDREYNYYGLDVWGQGTTVTVSS
VL: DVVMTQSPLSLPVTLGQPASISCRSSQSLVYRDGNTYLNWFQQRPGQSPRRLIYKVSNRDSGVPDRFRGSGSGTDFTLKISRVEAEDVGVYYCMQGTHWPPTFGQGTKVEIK
In the case of B1, the Kd in assay [1] and in assay [2] was 160 pM throughout.

B2: 10-O18-A (antibody, V domains shown)
VH: QVQLQESGPGLVKPSETLSLTCTVSGGSINSYYWSWIRQPPGKGLEWIGYIFYSGITNYNPSLKSRVTISLDTSKNQFSLKLSSVTAADTAVYYCARIGVAGFYFDYWGQGTLVTVSS
VL: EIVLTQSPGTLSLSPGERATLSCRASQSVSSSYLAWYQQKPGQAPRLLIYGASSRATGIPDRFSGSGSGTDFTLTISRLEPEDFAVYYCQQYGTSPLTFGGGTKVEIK
B2: the Kd in assay [1] was found to be 620 pM; in assay [3], 602 pM.

B3: 2-C8-A (antibody, V domains shown)
VH: EVQLVESGGGLVQPGGSQRLSCAASGFTFSSYWMNWVRQAPGKGLEWVANIKEDGSEKYYVDSVKGRFTISRDNAKNSLYLQMNSLRAEDTAVYYCARDPGWAPFDYWGQGTLVTVSS
VL: DIQMSQSPSSLSASVGDRVTITCRASQGISNYLAWFQQKPGKAPKSLIYAASSLQSGVPSKFSGSGSGTDFTLAISSLQPEDFATYYCQQYNSFPYTFGQGTTLEIK
In the case of B3, the Kd in assay [1] and in assay [3] was 668 pM throughout.

B4: 7-I1-B (antibody, V domains shown)
VH: EVQLVESGGGLVKPGGSLRLSCAASGFTFSNTWMSWVRQAPGKGLEWVGRIKSKSDGGTTDYAAPVKGRFTISRDDSKNTLYLQMNSLKTEDTAVYYCTQYYWNSFDYWGQGTLVTVSS
VL: not shown
For B4, the dissociation constant (Kd) worked out at 680 pM in assay [1] and 686 pM in assay [2].
